According to PMC11005422:
One block for each substance: values may come before it.

Columns and labels:
[1] = target: ClpC1 (NTD residues 1-156 removed, E284A/E622A/F440A) (Streptomyces hawaiiensis NRRL 15010); assay: cryo-EM structure; ClpC1 added to the pre-formed shClpP1P2 complex with fluorescein-labeled casein and ATP; conformations A (2.94 Å) and B (3.0 Å), C1
[2] = target: shClpP1 (first 29 residues removed, S113A) (Streptomyces hawaiiensis NRRL 15010); assay: cryo-EM structure; apo shClpP1P2, C7 symmetry imposed, 2.34 Å (free shClpP1P2 particles of the ClpC1 sample; a second reconstruction at 2.88 Å from the shClpP1P2 sample); SEC buffer 20 mM HEPES, 150 mM KCl, 5% glycerol, pH 7.5
[3] = target: shClpP1 alone (sample of Fig. S1A) (Streptomyces hawaiiensis NRRL 15010); assay: not stated; Fig. S1A (not shown): purified proteins in solution; a shClpP1 sample was also put on cryo-EM grids
[4] = target: shClpP2 (first 49 residues removed, S131A) (Streptomyces hawaiiensis NRRL 15010); assay: cryo-EM structure; apo shClpP1P2, C7 symmetry imposed, 2.34 Å (free shClpP1P2 particles of the ClpC1 sample; a second reconstruction at 2.88 Å from the shClpP1P2 sample); SEC buffer 20 mM HEPES, 150 mM KCl, 5% glycerol, pH 7.5

stoichiometry N [1]: 6
Substance: ClpC1 (NTD residues 1-156 removed, E284A/E622A/F440A) (enzyme)

stoichiometry N [2]: 7
Substance: shClpP1 (first 29 residues removed, S113A) (enzyme)

stoichiometry N [3]: 7
Substance: shClpP1 alone (sample of Fig. S1A) (enzyme)

stoichiometry N [4]: 7
Substance: shClpP2 (first 49 residues removed, S131A) (enzyme)
